Reference: patent US20150018530A1

Tests used:
[1] = target: EGF receptor on A431 cells (UniProt P00533); assay: competition flow cytometry on A431 cells; scFv pre-bound, mAb108 at 7.5 nM as competitor, APC anti-mouse detection
[2] = target: EGF receptor on A431 cells (UniProt P00533); assay: Competition flow cytometry on A431 cells: cells incubated with the scFv at varied concentration and washed, then mAb108 at 7.5 nM, detected with APC-labelled anti-mouse antibody; y axis Median
[3] = target: EGF receptor on A431 cells (UniProt P00533); assay: Flow cytometry binding curve of the Fab on A431 cells (binding conditions 'as described previously'); y axis Median rises from about 20 to about 790
[4] = target: EGF receptor on A431 cells (UniProt P00533); assay: flow cytometry on A431 cells; concentration of mAb108 used in the competition assay
[5] = target: EGF receptor on A431 cells (UniProt P00533); assay: flow cytometry on A431 cells; binding conditions 'as described previously' (competition with mAb108)

Chain of wild type scFv-108 (periplasmic) (scFv): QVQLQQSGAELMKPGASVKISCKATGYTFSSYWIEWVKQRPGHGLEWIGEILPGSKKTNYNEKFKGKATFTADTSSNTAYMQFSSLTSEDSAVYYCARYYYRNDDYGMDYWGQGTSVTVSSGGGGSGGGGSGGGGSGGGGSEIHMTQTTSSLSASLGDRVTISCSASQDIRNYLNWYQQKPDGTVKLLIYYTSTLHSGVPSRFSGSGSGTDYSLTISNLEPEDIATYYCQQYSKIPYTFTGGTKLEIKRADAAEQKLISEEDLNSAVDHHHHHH

Row | Substance | IC50 relative to the wild type scFv [1] | other results
1 | wild type scFv-108 (periplasmic) |  | IC50 [1]: 8.1 nM
2 | scFv-108 Leu156pAF | 1.8 x | 
3 | Fab-108 Thr204 pAF (from UniProt P01834 1-107) |  | EC50 [3]: 6.2 nM
4 | scFv-108 Ser136pAF-5K PEG | 6.3 x | IC50 [2]: 51 nM
5 | scFv-108 Ser131pAF | 1.3 x | 
6 | EGFR-specific monoclonal antibody mAb108 (ATCC #HB 9764) |  | EC80 [4]: 7.5 nM
7 | wild type Fab-108 (from UniProt P01834 1-107) |  | EC50 [5]: 3 nM
8 | scFv-108 Ser193pAF | 1.8 x | 

Now from value to substance, other results behind:

Row | IC50 relative to the wild type scFv [1] | Substance | other results
9 | 1.6 x | scFv-108 Ser136pAF | IC50 [2]: 13.1 nM
10 | 2.6 x | scFv-108 His144pAF | 
